Data set [1] addresses T1, BlsM (Streptomyces griseochromogenes, UniProt Q841K1).
T1 construct: N-terminal 6xHis tag (pET28a), E. coli BL21(DE3)
As to the kind of experiment: HPLC of released 5hmC, Michaelis-Menten fit. Format: biochemical. To be noted: 50 mM Tris-HCl, pH 7.2, 37 °C, 30 min. The text has this: HPLC of released 5hmC, Michaelis-Menten fit on BlsM

Data set [2] deals with the molecule itself. As to the kind of experiment: SEC; size exclusion chromatography of MilB in solution (Figure S1); conditions of this run not given. A general note: SEC sorts molecules by how far they enter the pores of the column.
Substrate in data set [3]: Nc1nc(=O)n([C@@H]2O[C@H](COP(=O)(O)O)[C@@H](O)[C@H]2O)cc1CO
As to the kind of experiment: HPLC of released 5hmC, Michaelis-Menten fit. Type of data set: biochemical, Streptomyces rimofaciens. Particulars: 50 mM Tris-HCl, pH 7.2, 37 °C, 30 min. From the text: HPLC of released 5hmC, Michaelis-Menten fit on MilB

Substrate in data set [4]: Nc1ccn([C@@H]2O[C@H](COP(=O)(O)O)[C@@H](O)[C@H]2O)c(=O)n1
Briefly: HPLC of released cytosine, Michaelis-Menten fit. To be noted: 50 mM Tris-HCl, pH 7.2, 37 °C, 30 min. Type of data set: biochemical, Streptomyces rimofaciens. From the text:
HPLC of released cytosine, Michaelis-Menten fit on MilB

The text below walks through data of paper PMC4081090, “Structure of the N-glycosidase MilB in complex with hydroxymethyl CMP reveals its Arg23 specifically recognizes the substrate and controls its entry” (Nucleic Acids Research, 2014).

For orientation: stoichiometry N means a count of units in the complex or per binding partner. By kcat is commonly meant the maximal rate divided by the concentration of active sites. In general, kcat/Km refers to the second-order rate constant that governs catalysis at low substrate concentration.

T1 sequence (Q841K1 entry or part of it): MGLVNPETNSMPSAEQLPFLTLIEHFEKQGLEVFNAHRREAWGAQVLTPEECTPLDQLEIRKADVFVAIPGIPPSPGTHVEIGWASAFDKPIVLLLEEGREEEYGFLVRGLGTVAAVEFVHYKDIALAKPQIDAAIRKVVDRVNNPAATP

Consider `Nc1nc(=O)n([C@@H]2O[C@H](COP(=O)(O)O)[C@@H](O)[C@H]2O)cc1CO` [hmCMP, 5-hydroxymethyl cytidine 5′-monophosphate], for which, in data set [1], the Km was 328 µM.

B1: N-glycosidase MilB, wild type (enzyme, Streptomyces remofaciens ZJU5119, UniProt B4Y381 1-170, looked up)
chain: MTTTPKPRTAPAVGSVFLGGPFRQLVDPRTGVMSSGDQNVFSRLIEHFESRGTTVYNAHRREAWGAEFLSPAEATRLDHDEIKAADVFVAFPGVPASPGTHVEIGWASGMGKPMVLLLERDEDYAFLVTGLESQANVEILRFSGTEEIVERLDGAVARVLGRAGEPTVIG
notes: MilB, N-glycosidase (CMP/hydroxymethyl CMP hydrolase) of the mildiomycin biosynthesis pathway, Streptomyces remofaciens ZJU5119; the full-length protein consists of 170 residues; residues 12-169 are seen in the crystal model; Cloned into pET28a with an N-terminal 6xHis tag; also called WT MilB; full-length MilB; source: E. coli BL21(DE3), purified (Ni-NTA, Superdex200 gel filtration)
As to B1, in data set [2], the “stoichiometry N” value is 2. In addition, in data set [3], the Km is listed as 71.55 (11.66) μM, the kcat stood at 0.0531 s⁻¹ and the kcat/Km was 743 M⁻¹ s⁻¹.

B2: MilB (Streptomyces rimofaciens; R23M) (protein)
chain: MTTTPKPRTAPAVGSVFLGGPFMQLVDPRTGVMSSGDQNVFSRLIEHFESRGTTVYNAHRREAWGAEFLSPAEATRLDHDEIKAADVFVAFPGVPASPGTHVEIGWASGMGKPMVLLLERDEDYAFLVTGLESQANVEILRFSGTEEIVERLDGAVARVLGRAGEPTVIG
notes: full-length (170 residues), N-terminal 6xHis tag (pET28a), E. coli BL21(DE3); dimer; crystal model residues 12-169 / 12-170
Turning to B2, in data set [4], the Km was 1122.00 (100) μM, the kcat amounted to 0.0305 s⁻¹ and the kcat/Km worked out at 27.1 M⁻¹ s⁻¹. Besides, in data set [3], the Km is listed as 86.63 (10.67) μM, the kcat is 0.0156 s⁻¹ and the kcat/Km came out at 180 M⁻¹ s⁻¹.
